We go through one substance from paper PMC6362288.

This test addresses protein G (UniProt P19909). Briefly: ELISA; polystyrene wells modified with the PrG-Gra complex (PrG adsorbed on graphene, 2:1); mAb 5, 10, 15 µg/ml; unreacted mAb in the supernatant by Bradford, bound mAb by Anti-IgGk-HRP at 450 nm. On the technique in general: In an ELISA, binding on a coated surface is turned into a signal by an enzyme label.

For the substance mouse monoclonal IgG2b (mAb) (antibody), the absorbance (Anti-IgGk-HRP) against PS modified with the PrG alone came out at 2 fold.
